# Data reported in patent US20250032588A1 (Eli Lilly, published 2025).
# Changes are numbered by the printed parent chain.
# B1: Example 1 fusion protein (SEQ ID NO:12) (Fc fusion)
# chain: FVNQHLCGSHLVEALELVCGERGFHYGGGGGGSGGGGGIVEQCCTSTCSLDQLENYCGGGGGQGGGGQGGGGQGGGGGECPPCPAPPVAGPSVFLFPPKPKDTLMISRTPEVTCVVVDVSHEDPEVQFNWYVDGVEVHNAKTKPREEQFNSTFRVVSVLTVVHQDWLNGKEYKCKVSNKGLPAPIEKTISKTKGQPREPQVYTLPPSREEMTKNQVSLTCLVKGFYPSDIAVEWESNGQPENNYKTTPPMLDSDGSFFLYSKLTVDKSRWQQGNVFSCSVMHEALHNHYTQKSLSLSPG
# B2: Example 3 fusion protein (SEQ ID NO:17) (Fc fusion)
# chain: FVNQHLCGSHLVEALELVCGERGFHYGGGGGGSGGGGGIVEQCCTSICSLDQLENYCGGGGGQGGGGQGGGGQGGGGQGGPCPPCPAPEAAGGPSVFLFPPKPKDTLMISRTPEVTCVVVDVSQEDPEVQFNWYVDGVEVHNAKTKPREEQFNSTYRVVSVLTVLHQDWLNGKEYKCKVSNKGLPSSIEKTISKAKGQPREPQVYTLPPSQEEMTKNQVSLTCLVKGFYPSDIAVEWESNGQPENNYKTTPPVLDSDGSFFLYSRLTVDKSRWQEGNVFSCSVMHEALHNHYTQKSLSLSLG
# B3: Example 5 fusion protein (SEQ ID NO:19) (Fc fusion)
# chain: B2 chain with I47T
# B4: Example 9 fusion protein (SEQ ID NO:23) (Fc fusion)
# chain: FVNQHLCGSHLVEALELVCGERGFFYTEETGGGGGGGIVEQCCTSICSLYQLENYCGGGGGSGGGGSGGGGSGGGGSECPPCPAPPVAGPSVFLFPPKPKDTLMISRTPEVTCVVVDVSHEDPEVQFNWYVDGVEVHNAKTKPREEQFNSTFRVVSVLTVVHQDWLNGKEYKCKVSNKGLPAPIEKTISKTKGQPREPQVYTLPPSREEMTKNQVSLTCLVKGFYPSDIAVEWESNGQPENNYKTTPPMLDSDGSFFLYSKLTVDKSRWQQGNVFSCSVMHEALHNHYTQKSLSLSPG
# Molecular target: T1, human insulin receptor isoform A (human, UniProt P06213-2 28-1370)
# T1 construct: whole, on cells; Tested as P1 membrane preparations of the over-expressing cells; also called hIR-A
# Assay: competitive radio-ligand binding, [125I]-insulin, membranes of 293EBNA cells over-expressing hIR-A
# Method: IC₅₀ values are determined from 4-parameter logistic non-linear regression analysis (XLFit version 4.0, IDBS). If necessary, curve top or bottom parameters are set to 100 or 0, respectively.
# Reported values for Kᵢ are shown as geometric mean±the standard error of the mean (SEM), with the number of replicate determinations indicated by “n” (Table 1).
row,Binder,Ki [nM]
1,B1,24.9
2,B2,10.1
3,B3,35.6
4,B4,3.74
